# Measurements as given in the supplement of paper PMC10567573.
# ± gives the standard deviation.
# Assay: protein stability index of a GFP-peptide fusion (GPS, HEK-293T) (PSI 1-6); higher = more stable
# Conditions: c terminus: a fixed tail appended
# 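Further: 24-mer peptide tiles fused after GFP, lentivirally expressed, FACS-sorted into six equal bins by GFP/DsRed ratio, decoded by Illumina sequencing, PSI is the read-weighted mean bin number.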
Sequence,protein stability index (treatment: DMSO),"protein stability index (treatment: MLN4924 1 uM, 8 h)"
LLLHRGAGKEAMTSDGYTALHLAA [RIPK4],2.33 ± 0.25,2.22 ± 0.48
LLRSPPPPSARHRAHPPQRPASSG [KCNA3],4.42 ± 0.18,4.62 ± 0.33
LLSVDAFAAPSPATTASPAKVDSS [SNAP91],4.86 ± 0.21,4.87 ± 0.07
LLTGETEADPEMIKRAEDYGPVEV [CLPTM1],5.02 ± 0.3,5.14 ± 0.11
LLTWTEPPVRPAGYLLSFHTPGGQ [TNXB],2.42 ± 0.23,2.64 ± 0.29
LMCFDPDTDKWIQKAPMTTVRGLH [KLHL13],2.57 ± 0.18,2.64 ± 0.23
LMKHQTNISELKRTFLETSTDTAV [EPB41L3],3.68 ± 0.79,3.92 ± 0.38
LMLAGMGLHYIAFRKVKQMHLNFM [DNAJC4],2.45 ± 0.82,2.41 ± 0.33
LMSDLRRKRTAHERAKELYSSGEF [INTS4],3.54 ± 0.19,3.65 ± 0.1
LMSGALAVNQKIDRESLCGASTSC [PCDHGC5],3.67 ± 0.4,3.6 ± 0.095
LNRPGPAPLSSRKHVLYVEHRHLN [TCF25],3.14 ± 0.28,2.8 ± 0.15
LPACEFEMGGSEGIVESIQIMKEG [NETO1],4.92 ± 0.26,4.74 ± 0.3
LPCDLPKVVSRAENLSVPVIGALL [LPCAT4],2.29 ± 0.37,2.27 ± 0.31
LPDVEPAAFLALLRFLYSDEVQIG [BTBD1],2.16 ± 0.43,2.28 ± 0.28
LPDVSLGRYAYVRGGGDPWTNGSG [MCOLN1],2.51 ± 0.43,2.87 ± 0.22
LPHPKSMLQATAEANNLAAAASAK [ATL3],4.86 ± 0.27,5.07 ± 0.19
LPKEASDGTGASQEPPTTDSQEAQ [TOR1AIP2],5.65 ± 0.29,5.54 ± 0.2
LPSAQDINRLVGLQNTYMGYLDYR [GLT8D2],2.52 ± 0.28,2.52 ± 0.38
LPSWAELLRPKYRAPQGCSGVDEC [PBXIP1],2.83 ± 0.11,2.69 ± 0.46
LQHLIGLSNLTHVLYPVPLESYED [PRAME],2.3 ± 0.24,2.54 ± 0.12
LQLSEFLCEEFRNRNQRIVQLIQD [CPN1],2.56 ± 0.25,2.71 ± 0.39
LQRLSHSGSRVRVGFRLCNSTGGD [SCNN1D],3.14 ± 0.22,3.11 ± 0.18

Sequence,protein stability index (treatment: DMSO),"protein stability index (treatment: MLN4924 1 uM, 8 h)"
LRCLDRDEPSKPTLALEYTYGRRA [DYNC2LI1],3.45 ± 0.14,3.41 ± 0.32
LRGGRGGSGGTRGPPSRGGHMDDG [RBMX],5.26 ± 0.19,5.3 ± 0.34
LRMMVENIMNKEAFMNQEITKAFH [RHOBTB1],2.28 ± 0.5,2.2 ± 0.24
LRNIQGLFAPLKLQMEFKAVQQVQ [POMP],2.25 ± 0.44,2.28 ± 0.11
LRRTGCAALRIANCKLFRLQLQQG [GAN],2.33 ± 0.47,2.13 ± 0.28
LRVLPNLPCVVQEGAIVMARGRHV [PYCR3],2.63 ± 0.37,2.73 ± 0.22
LSDFGLCTGLKKAHRTEFYRNLTH [STK38L],2.41 ± 0.6,2.2 ± 0.27
LSESETGPMEEVERQVLPDPEVLE [PBXIP1],5.6 ± 0.31,5.61 ± 0.16
LSKSRENPEEDEDQRNPAKESLET [SOAT1],5.47 ± 0.27,5.66 ± 0.34
LSLSNATVLTRSLFLGRILSLTSS [FANCE],3.06 ± 0.64,2.88 ± 0.34
LSYRNGYAIVRRPTVGIGGDRLQF [EFHC1],2.23 ± 0.24,2.35 ± 0.29
LTAALLTFDTGCLTLSQYILLDPI [POMT2],3.36 ± 0.32,3.12 ± 0.14
LTGLQLKLGPALKIYEYHVKPLQT [SAMD13],2.26 ± 0.29,2.47 ± 0.42
LTGQKAVKVHGLLKTFVKQTDHIK [GFOD1],2.85 ± 0.29,2.59 ± 0.27
LTHIEAQNKIRACGERLSLGLSRA [PDLIM7],2.83 ± 0.27,2.85 ± 0.12
LTLCKSDLESQVESLREELICLKK [KRT34],2.89 ± 0.87,2.65 ± 0.27
LTRFLSRVIKCDPDCLRACQEQIE [CCND1],2.34 ± 0.16,2.56 ± 0.07
LTTASIIQLGVTPPGYSAWIKEEA [SLC6A17],2.6 ± 0.23,2.82 ± 0.31
LWVPQPPPRTIKRTRRRLSRNRDP [PWWP2B],3.44 ± 0.35,3.82 ± 0.33
LYDLRADREVAIYSKESIIFGASS [GNB5],2.51 ± 0.27,2.72 ± 0.27
LYFSIHRYEQGRFWPHLKASNWST [HDAC6],2.77 ± 0.66,2.73 ± 0.64
LYLKQSDLASAAAKQIMEETYKME [INTS4],3.05 ± 0.17,3.3 ± 0.23
